The record followed here is paper doi:10.1101/2022.08.09.503292.

In data set [1] the target is mono-nucleosome with extra-nucleosomal linker DNA (185-bp '601'), Oregon green 488 on H2B D51C (NCP^185) (human) (UniProt Q6FI13). The experiment in a line: other fluorescence titration.
Data set [2] deals with T1, BARD1 141-216 (UniProt Q99728 141-216). In words: NMR.
Another data set deals with BARD1 124-270 (UniProt Q99728 124-270). In words: NMR.
For data set [3], the target named is T1, BARD1 141-216. In words: NMR. This is another data set of the same source.

Where two headings read alike, the source gives them in different places. Where only a bound is given, the exact number is not on record here.

T1 sequence (Q99728 141-216): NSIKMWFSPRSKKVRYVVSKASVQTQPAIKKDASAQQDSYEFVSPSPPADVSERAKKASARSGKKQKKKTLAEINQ
BARD1 124-270, sequence (Q99728 124-270): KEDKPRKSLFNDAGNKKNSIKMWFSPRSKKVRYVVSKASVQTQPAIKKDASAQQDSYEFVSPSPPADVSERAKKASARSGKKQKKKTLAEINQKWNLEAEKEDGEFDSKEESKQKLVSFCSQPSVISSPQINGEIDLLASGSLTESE

In turn, “BRCA1^RING/BARD1^216 heterodimer (from UniProt P38398 1-112; Q99728 1-216) (complex)” displayed a fold increase in binding affinity with linker DNA (NCP^185 against NCP^147) in data set [1] below 2 fold.

B1: 36-mer dsDNA (dsDNA)
DNA 1: CCTACGACGCCTGGGGTACCAGCGCAATTGTGTACC
DNA 2: GGTACACAATTGCGCTGGTACCCCAGGCGTCGTAGG
For the molecule B1, the binding result with BARD1 141-216 [2] and in the data set with BARD1 124-270 was “binds” in each case.

B2: 36-mer bubble-DNA (mixed)
DNA 1: CCTACGACGCCTGGCTCTTTCCCGCAATTGTGTACC
DNA 2: B1 DNA 2
For B2, the binding result with BARD1 141-216 [3] was “binds”.
